Measured values taken from patent publication US20250163127A1 (published 2025).

T1: CD80 (human)
T1 chain: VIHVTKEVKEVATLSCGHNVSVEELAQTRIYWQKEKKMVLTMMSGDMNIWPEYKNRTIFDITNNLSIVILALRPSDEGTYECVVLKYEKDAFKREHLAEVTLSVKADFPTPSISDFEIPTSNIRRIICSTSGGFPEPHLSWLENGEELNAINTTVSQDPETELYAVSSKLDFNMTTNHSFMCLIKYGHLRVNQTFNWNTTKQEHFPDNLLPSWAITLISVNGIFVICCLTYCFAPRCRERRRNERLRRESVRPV


Columns and labels:
CD80 = target: T1, CD80; assay: flow cytometry, CHO-CD80 cells
human PD-1 = human PD-1 (human, UniProt Q15116); assay: flow cytometry, Jurkat/IL-2/PD-1 cells
PD-1 = PD-1 (human, UniProt Q15116); assay: cell-based or functional assay

EC50 (CD80) [nM] | EC50 (human PD-1) [nM] | % CD25 Hi FoxP3 + (PD-1) [% at 100 nM] | Binder
– | – | 24.8 | PD-L1 303-Fc (SEQ ID NO 3531) (Fc fusion) FTVTVPKDLYVVEYGSNMTIECKFPVEKQLDLAALIVYWEMEGKDIIQFVHGEEDQKAQHSSYRQRARLLKDQLSLGNAALQITDVKLQDAGVYRCMISYGGGADYKRITVKVNAGGGGSGGGGSEPKSSDKTHTCPPCPAPEAEGAPSVFLFPPKPKDTLMISRTPEVTCVVVDVSHEDPEVKFNWYVDGVEVHNAKTKPREEQYNSTYRVVSVLTVLHQDWLNGKEYKCKVSNKALPAPIEKTISKAKGQPREPQVYTLPPCREEMTKNQVSLWCLVKGFYPSDIAVEWESNGQPENNYKTTPPVLDSDGSFFLYSKLTVDKSRWQQGNVFSCSVMHEALHNHYTQKSLSLSPG
1.4 | 1 | – | PD-L1 303-CTLA-4 3037-Fc (Fc fusion) FTVTVPKDLYVVEYGSNMTIECKFPVEKQLDLAALIVYWEMEGKDIIQFVHGEEDQKAQHSSYRQRARLLKDQLSLGNAALQITDVKLQDAGVYRCMISYGGGADYKRITVKVNAGSGGSGGGGSGGGGSKAMHVAQPAVVLASSRGIASFVCEYASPWKATEVRVTVLRQADSQVTEVCAATYMMGSELTFPDDSICTGTSSGNQVNLTIRGLRAMDTGLYICKVEQMYPPPYLLGIGNGTQIYVIDPEPCPDSDGGGGSGSGGGGSEPKSSDKTHTCPPCPAPEAEGAPSVFLFPPKPKDTLMISRTPEVTCVVVDVSHEDPEVKFNWYVDGVEVHNAKTKPREEQYNSTYRVVSVLTVLHQDWLNGKEYKCKVSNKALPAPIEKTISKAKGQPREPQVYTLPPSRDELTKNQVSLTCLVKGFYPSDIAVEWESNGQPENNYKTTPPVLDSDGSFFLYSKLTVDKSRWQQGNVFSCSVMHEALHNHYTQKSLSLSPG
3.4 | 0.5 | – | PD-L1 303-CTLA4 3060-Fc (Fc fusion) FTVTVPKDLYVVEYGSNMTIECKFPVEKQLDLAALIVYWEMEGKDIIQFVHGEEDQKAQHSSYRQRARLLKDQLSLGNAALQITDVKLQDAGVYRCMISYGGGADYKRITVKVNAGSGGSGGGGSGGGGSKAMHVAQPAVVFASSHGIASFVCEYASPWKATEVRVTVLRQADSQVTEVCAATYMTGNELTFLDDSICTGTSSGNQVNLTIQGLRAMDTGLYICKVEQMYPPPYLLGIGNGTQIYVIDPEPCPDSDGGGGSGSGGGGSEPKSSDKTHTCPPCPAPEAEGAPSVFLFPPKPKDTLMISRTPEVTCVVVDVSHEDPEVKFNWYVDGVEVHNAKTKPREEQYNSTYRVVSVLTVLHQDWLNGKEYKCKVSNKALPAPIEKTISKAKGQPREPQVYTLPPSRDELTKNQVSLTCLVKGFYPSDIAVEWESNGQPENNYKTTPPVLDSDGSFFLYSKLTVDKSRWQQGNVFSCSVMHEALHNHYTQKSLSLSPG
– | – | 25.9 | PD-L1 303-Fc + Fc (Fc fusion) chain 1: HMSSVSAQAAAEPKSSDKTHTCPPCPAPEAEGAPSVFLFPPKPKDTLMISRTPEVTCVVVDVSHEDPEVKFNWYVDGVEVHNAKTKPREEQYNSTYRVVSVLTVLHQDWLNGKEYKCKVSNKALPAPIEKTISKAKGQPREPQVYTLPPCREEMTKNQVSLWCLVKGFYPSDIAVEWESNGQPENNYKTTPPVLDSDGSFFLYSKLTVDKSRWQQGNVFSCSVMHEALHNHYTQKSLSLSPGK chain 2: FTVTVPKDLYVVEYGSNMTIECKFPVEKQLDLAALIVYWEMEGKDIIQFVHGEEDQKAQHSSYRQRARLLKDQLSLGNAALQITDVKLQDAGVYRCMISYGGGADYKRITVKVNAGSGGSGGGGSGGGGSEPKSSDKTHTCPPCPAPEAEGAPSVFLFPPKPKDTLMISRTPEVTCVVVDVSHEDPEVKFNWYVDGVEVHNAKTKPREEQYNSTYRVVSVLTVLHQDWLNGKEYKCKVSNKALPAPIEKTISKAKGQPREPQVCTLPPSREEMTKNQVSLSCAVKGFYPSDIAVEWESNGQPENNYKTTPPVLDSDGSFFLVSKLTVDKSRWQQGNVFSCSVMHEALHNHYTQKSLSLSPGHHHHHH
– | – | 26.8 | PD-L2 1417-Fc + Fc (Fc fusion) chain 1: HMSSVSAQAAAEPKSSDKTHTCPPCPAPEAEGAPSVFLFPPKPKDTLMISRTPEVTCVVVDVSHEDPEVKFNWYVDGVEVHNAKTKPREEQYNSTYRVVSVLTVLHQDWLNGKEYKCKVSNKALPAPIEKTISKAKGQPREPQVYTLPPCREEMTKNQVSLWCLVKGFYPSDIAVEWESNGQPENNYKTTPPVLDSDGSFFLYSKLTVDKSRWQQGNVFSCSVMHEALHNHYTQKSLSLSPGK chain 2: LFTVTVPKELYIIEQGSNVTLECNFDTGSHVNLGAITASLQKVENDASPHRERATLLEEQLPLGRALFHIPQVQVRDEGQYRCIIIYGDAWDYKYLTLKVKAGSGGSGGGGSGGGGSEPKSSDKTHTCPPCPAPEAEGAPSVFLFPPKPKDTLMISRTPEVTCVVVDVSHEDPEVKFNWYVDGVEVHNAKTKPREEQYNSTYRVVSVLTVLHQDWLNGKEYKCKVSNKALPAPIEKTISKAKGQPREPQVCTLPPSREEMTKNQVSLSCAVKGFYPSDIAVEWESNGQPENNYKTTPPVLDSDGSFFLVSKLTVDKSRWQQGNVFSCSVMHEALHNHYTQKSLSLSPGHHHHHH

The remaining lines, values behind:

Binder | EC50 (CD80) [nM] | EC50 (human PD-1) [nM] | % CD25 Hi FoxP3 + (PD-1) [% at 100 nM]
CTLA4 3037-Fc-PD-L1 303 (SEQ ID NO 3672) (Fc fusion) KAMHVAQPAVVLASSRGIASFVCEYASPWKATEVRVTVLRQADSQVTEVCAATYMMGSELTFPDDSICTGTSSGNQVNLTIRGLRAMDTGLYICKVEQMYPPPYLLGIGNGTQIYVIDPEPCPDSDGSGGGGSEPKSSDKTHTCPPCPAPEAEGAPSVFLFPPKPKDTLMISRTPEVTCVVVDVSHEDPEVKFNWYVDGVEVHNAKTKPREEQYNSTYRVVSVLTVLHQDWLNGKEYKCKVSNKALPAPIEKTISKAKGQPREPQVYTLPPSRDELTKNQVSLTCLVKGFYPSDIAVEWESNGQPENNYKTTPPVLDSDGSFFLYSKLTVDKSRWQQGNVFSCSVMHEALHNHYTQKSLSLSPGGGGGSGGGGSGGGGSAFTVTVPKDLYVVEYGSNMTIECKFPVEKQLDLAALIVYWEMEGKDIIQFVHGEEDQKAQHSSYRQRARLLKDQLSLGNAALQITDVKLQDAGVYRCMISYGGGADYKRITVKVNA | 0.921 | 6.8 | –
CTLA-4 3037-PD-L1 303-Fc (Fc fusion) KAMHVAQPAVVLASSRGIASFVCEYASPWKATEVRVTVLRQADSQVTEVCAATYMMGSELTFPDDSICTGTSSGNQVNLTIRGLRAMDTGLYICKVEQMYPPPYLLGIGNGTQIYVIDPEPCPDSDGSGGSGGGGSGGGGSFTVTVPKDLYVVEYGSNMTIECKFPVEKQLDLAALIVYWEMEGKDIIQFVHGEEDQKAQHSSYRQRARLLKDQLSLGNAALQITDVKLQDAGVYRCMISYGGGADYKRITVKVNAGGGGSGSGGGGSEPKSSDKTHTCPPCPAPEAEGAPSVFLFPPKPKDTLMISRTPEVTCVVVDVSHEDPEVKFNWYVDGVEVHNAKTKPREEQYNSTYRVVSVLTVLHQDWLNGKEYKCKVSNKALPAPIEKTISKAKGQPREPQVYTLPPSRDELTKNQVSLTCLVKGFYPSDIAVEWESNGQPENNYKTTPPVLDSDGSFFLYSKLTVDKSRWQQGNVFSCSVMHEALHNHYTQKSLSLSPG | 2.3 | 111 | –
CTLA-4 3060-PD-L1 303-Fc (Fc fusion) KAMHVAQPAVVFASSHGIASFVCEYASPWKATEVRVTVLRQADSQVTEVCAATYMTGNELTFLDDSICTGTSSGNQVNLTIQGLRAMDTGLYICKVEQMYPPPYLLGIGNGTQIYVIDPEPCPDSDGSGGSGGGGSGGGGSFTVTVPKDLYVVEYGSNMTIECKFPVEKQLDLAALIVYWEMEGKDIIQFVHGEEDQKAQHSSYRQRARLLKDQLSLGNAALQITDVKLQDAGVYRCMISYGGGADYKRITVKVNAGGGGSGSGGGGSEPKSSDKTHTCPPCPAPEAEGAPSVFLFPPKPKDTLMISRTPEVTCVVVDVSHEDPEVKFNWYVDGVEVHNAKTKPREEQYNSTYRVVSVLTVLHQDWLNGKEYKCKVSNKALPAPIEKTISKAKGQPREPQVYTLPPSRDELTKNQVSLTCLVKGFYPSDIAVEWESNGQPENNYKTTPPVLDSDGSFFLYSKLTVDKSRWQQGNVFSCSVMHEALHNHYTQKSLSLSPG | 2.3 | 0.6 | –
CTLA-4 3037-Fc-PD-L1 303 (SEQ ID NO 3670) (Fc fusion) KAMHVAQPAVVLASSRGIASFVCEYASPWKATEVRVTVLRQADSQVTEVCAATYMMGSELTFPDDSICTGTSSGNQVNLTIRGLRAMDTGLYICKVEQMYPPPYLLGIGNGTQIYVIDPEPCPDSDGSGGGGSEPKSSDKTHTCPPCPAPEAEGAPSVFLFPPKPKDTLMISRTPEVTCVVVDVSHEDPEVKFNWYVDGVEVHNAKTKPREEQYNSTYRVVSVLTVLHQDWLNGKEYKCKVSNKALPAPIEKTISKAKGQPREPQVYTLPPSRDELTKNQVSLTCLVKGFYPSDIAVEWESNGQPENNYKTTPPVLDSDGSFFLYSKLTVDKSRWQQGNVFSCSVMHEALHNHYTQKSLSLSPGGGGGSGGGGSGGGGSFTVTVPKDLYVVEYGSNMTIECKFPVEKQLDLAALIVYWEMEGKDIIQFVHGEEDQKAQHSSYRQRARLLKDQLSLGNAALQITDVKLQDAGVYRCMISYGGGADYKRITVKVNA | 1.9 | 4.5 | –
CTLA4 3037-Fc (Fc fusion) KAMHVAQPAVVLASSRGIASFVCEYASPWKATEVRVTVLRQADSQVTEVCAATYMMGSELTFPDDSICTGTSSGNQVNLTIRGLRAMDTGLYICKVEQMYPPPYLLGIGNGTQIYVIDPEPCPDSDGSGGGGSEPKSSDKTHTCPPCPAPEAEGAPSVFLFPPKPKDTLMISRTPEVTCVVVDVSHEDPEVKFNWYVDGVEVHNAKTKPREEQYNSTYRVVSVLTVLHQDWLNGKEYKCKVSNKALPAPIEKTISKAKGQPREPQVYTLPPSRDELTKNQVSLTCLVKGFYPSDIAVEWESNGQPENNYKTTPPVLDSDGSFFLYSKLTVDKSRWQQGNVFSCSVMHEALHNHYTQKSLSLSPG | 1.7 | – | –
PD-L1 303-COMP (other) FTVTVPKDLYVVEYGSNMTIECKFPVEKQLDLAALIVYWEMEGKDIIQFVHGEEDQKAQHSSYRQRARLLKDQLSLGNAALQITDVKLQDAGVYRCMISYGGGADYKRITVKVNAGGGGSGGGGSGGGGSDLGPQMLRELQETNAALQDVRELLRQQVREITFLKNTVMECDACGDYKDDDDKHHHHHH | – | – | 23.5
